# Laboratory results as given in patent US20130251728A1.
# Legend:
# [1] = biological target: mouse GCGR (full-length, on HEK293 reporter cells) (mouse) (UniProt Q61606); test: cell-based or functional assay
# [2] = biological target: rat GCGR (full-length, on transiently transfected HEK293 reporter cells) (rat) (UniProt P30082); test: cell-based or functional assay
# rat GCGR (full-length, on transiently transfected HEK293 reporter cells) (rat), sequence (P30082 27-485 limits assumed): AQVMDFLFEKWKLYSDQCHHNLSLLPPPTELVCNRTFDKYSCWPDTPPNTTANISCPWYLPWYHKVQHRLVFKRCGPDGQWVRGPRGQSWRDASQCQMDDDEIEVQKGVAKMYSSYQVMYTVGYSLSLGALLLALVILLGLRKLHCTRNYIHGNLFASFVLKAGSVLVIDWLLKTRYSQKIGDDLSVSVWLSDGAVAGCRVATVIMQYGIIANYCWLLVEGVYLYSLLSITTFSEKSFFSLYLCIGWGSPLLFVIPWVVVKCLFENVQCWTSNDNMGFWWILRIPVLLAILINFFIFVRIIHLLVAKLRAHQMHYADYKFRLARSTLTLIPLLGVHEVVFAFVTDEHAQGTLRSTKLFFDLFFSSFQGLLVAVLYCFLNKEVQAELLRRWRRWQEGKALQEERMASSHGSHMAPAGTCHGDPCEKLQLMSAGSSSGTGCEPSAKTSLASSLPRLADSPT
# mouse GCGR (full-length, on HEK293 reporter cells) (mouse), sequence (Q61606 27-485 limits assumed): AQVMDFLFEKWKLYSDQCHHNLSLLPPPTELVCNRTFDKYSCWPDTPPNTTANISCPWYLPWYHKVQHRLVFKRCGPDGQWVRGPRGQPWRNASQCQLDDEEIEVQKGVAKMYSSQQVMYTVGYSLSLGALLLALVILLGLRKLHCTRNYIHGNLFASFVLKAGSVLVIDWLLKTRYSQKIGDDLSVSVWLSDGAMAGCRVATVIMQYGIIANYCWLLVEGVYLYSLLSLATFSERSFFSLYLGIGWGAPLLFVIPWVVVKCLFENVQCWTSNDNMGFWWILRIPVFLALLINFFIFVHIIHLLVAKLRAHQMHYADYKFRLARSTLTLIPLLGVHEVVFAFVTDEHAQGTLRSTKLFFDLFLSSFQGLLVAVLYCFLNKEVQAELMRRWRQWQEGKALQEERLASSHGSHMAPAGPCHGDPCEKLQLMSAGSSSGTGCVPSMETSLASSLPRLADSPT
substance,measurement,setting,value
glucagon (GCG) (from UniProt P01275 53-81) (ligand),"EC50, luciferase activity in HEK293/mGCGR reporter cells",[1],0.083 nM
same,"EC50, luciferase activity in HEK293 reporter cells transfected with rat GCGR",[2],0.252 nM
